Measured values as given in US12077763B2, “RNA-based control of powdery mildew” (Greenlight Biosciences, Inc., priority 2021, dated 2024).

Assays:
[1] = test system: GS1885, GS3336, GS1875, GS1879 transcripts; assay: Gene specific qRT-PCR of GS1885, GS3336, GS1875, GS1879 transcripts in leaf discs (Example 3); format: in vivo, E. necator; settings: six-days post inoculation, FIG. 4
Method: FIG. 4. Gene specific qRT-PCR analysis of GS1885, GS3336, GS1875, GS1879 transcripts at 6-dpi in leaf discs. The 2-ΔΔCT method was used to analyze the relative changes in gene expression. Gene expression was normalized to the untreated control. GS145 (a non-target dsRNA sequence) was also included as control. Asterisks denote significant differences compared to untreated control (UTC). Statistical comparisons between treatments were performed with ANOVA, followed by Welch's analysis.
(§1) qRT-PCR was performed to validate the effect of exogenous dsRNA on the expression of selected targeted genes for which activity of dsRNA had been shown by leaf assay (as described in Example 2). Samples were treated with dsRNA, inoculated after 24 hours and six leaf discs per treatment were collected at six-days post inoculation (dpi) for further analysis.

E. necator [2] = assay: Leaf disc assay, dry inoculum (settling tower), decrease in disease severity / hyphal growth (Example 2); settings: decrease in disease severity (hyphal growth) relative to untreated control, value ± SE; for % decrease =/− SE TP1: time point 1 (untreated control hyphal growth ≥50%); for % decrease =/− SE TP2: time point 2
Cyp51 transcripts = assay: Gene specific qRT-PCR of ES43 (Cyp51) transcripts in leaf discs (Example 3); format: in vivo, E. necator
Method: FIG. 3. Gene specific qRT-PCR analysis of ES43 (Cyp51) transcripts at 6-dpi in leaf discs. Two housekeeping genes (GDP1 and TEF1) were used as endogenous references to examine the expression of Cyp51. Gene expression was normalized to the untreated control. Statistical significance at p<0.01, Mann-Whitney U test.
as §1

E. necator [3] = assay: Greenhouse trial, powdery mildew on grapes, AUDPC of disease incidence and severity (Example 4); format: in vivo, E. necator in grapes
Method: A greenhouse trial was performed to evaluate the efficacy of ES43 dsRNA for controlling E. necator in grapes compared with commercial fungicides (Luna Experience/Pristina) and biofungicides (Regalia Biofungicide/Double Nickel).
Disease incidence was calculated based on the total number of leaves on the plant infected with powdery mildew, out of number of leaves present. Disease severity was calculated based on the percent (%) leaf surface infected overall for each plant. Area under the disease progress curve (AUDPC) was then calculated throughout the entire trial period (FIGS. 5 and 6).

E. necator [4] = assay: Field trial, natural infestation on Chardonnay grapes, leaf disease incidence (Example 5); format: in vivo, E. necator on Chardonnay grapes; settings: FIG. 7
Method: A field trial was conducted in ACDS Research vineyard (Dundee, New York) with natural disease infestation on grapes. The trial was set up in four rows (180 ft^2) of Chardonnay grapes, with plots consisting of four vines. The trial included 11 treatments (Table 5), each replicated four times. The grower spray program from budbreak through pre-bloom consisted of sulfur, and trial applications were initiated at bloom. Eight to fifteen applications of ES43 (6.25, 25, 50 and 100 g Ai/ha) were compared with Regalia (470 g Ai/ha) and DoubleNickel (10 billion Cfu/ml), Pristine (333 g Ai/ha) Rally 40 WSP (140 g Ai/ha) and Luna Experience (250 g Ai/ha). Disease incidence, total number of leaves infected out of number of leaves present on several branches, Weekly assessments was performed 1 day before ES43 applications. Data was collected one week after the last application for all treatments at the close of the experiment.
Disease incidence was calculated based on number of leaves infected with powdery mildew out of 20 total leaves.

E. necator [5] = assay: Leaf disc assay, wet inoculum (conidial suspension), disease severity by automated phenotyping (Example 1)

B1: GS1879: dsRNA trigger SEQ ID NO 142; gene target Chaperone-dependent E3 ubiquitin protein ligase (nucleic acid)
chain: CTGAATTTCTGAGTTCCGCTATCTTTTTATCTCTTCTTTCCTCAAGTCCGTATTGAAGTTCGTGAGATAATTTACTTCGATTCATCTCTCTTTTACTTTCTTGTGCCTCCCATCCCATTTTTTTACATTTCATCACTAACTCAGTTATTGGCTCTATACTGTTAGCCCCTTTTGTTCCTGCATACATCTCTTCCATACAAAATTTTCGCGCAGTCTTTGCAGATTGAAATGCCTCATCGTAATAATTTAGCGCCAGTTGTGCTTGGGCCAGTTGGAAATATGCTTTCATATTTGATGGGAGGAGACGTAAAGCGCATTGGGCATCTTCAATTACACGATGATGAAGAGATAATTTAAGAAGTACCATTGCACGATTTGTATAAAGTACTGGATTTTGGGGATCACAATTGATCGCTTTTGTGTAAAACATTTCAGCACGCGTATAATCACCAGACTTAAAATATTTATTTC
gene silencing in E. necator by sprayed dsRNA / gene expression levels vs untreated control [1]: Induced Gene Silencing
% decrease =/− SE TP1 (E. necator [2]): 49 ± 5%
% decrease =/− SE TP2 (E. necator [2]): 41 ± 7%

B2: ES43: 497 bp Cyp51-dsRNA, trigger SEQ ID NO 108; gene target Cytochrome P450 (nucleic acid)
DNA: TCTTACCATGAAGCGTTCCATTCCTATGTAACAATAATACAAAATGAAGTAGAGGCATATATAAACAATTGCGTTAGCTTTCAGGGTGAGAGTGGCACAGTAAACATCTCAAAAGTTATGGCGGAAATCACTATATATACTGCTTCACATGCCTTACAAGGAGAAGAGGTCCGTGAGAATTTTGACTCATCTTTTGCCGCTCTTTATCATGATCTTGATATGGGATTTACACCGATCAACTTTACATTTTACTGGGCACCTCTACCTTGGAATCGTGCTCGTGATCATGCCCAAAGAACTGTTGCTAGGACTTATATGAATATAATCCAAGCTCGTAGAGAAGAGAAAAGAAGCGGTGAGAATAAGCATGATATAATGTGGGAGTTGATGCGTTCCACTTATAAAGACGGGACTCCGGTACCTGATCGAGAGATAGCGCATATGATGATAGCCCTTCTGATGGCTGGACAACACTCTTCGTCATCCACGAGCTCATG
reduction of relative amounts of ES43 (Cyp51) transcripts (Cyp51 transcripts; 6-dpi, compared to untreated control, FIG. 3): up to 70%
gene silencing in E. necator by sprayed dsRNA (Cyp51 transcripts; qRT-PCR, six-days post inoculation): Induced Gene Silencing
AUDPC based on disease severity vs. untreated control (E. necator [3]; FIG. 6): significantly decreased severity
reduction in disease incidence, twice per week vs once per week (E. necator [3]; twice per week applications at the same rate, numerically): greater reduction in disease incidence compared to once per week applications at the same rate
AUDPC based on disease severity, compared with commercial fungicide and biofungicides (E. necator [3]; weekly and twice-per-week spray interval, FIG. 6): performed similarly to commercial fungicide and biofungicides
AUDPC based on disease incidence (E. necator [3]; weekly spray interval, all rates (6.25-100 g ai/ha), FIG. 5): reduced powdery mildew AUDPC incidence with all rates similar to or better than the biofungicide standard
leaf disease incidence (E. necator [4]; 6.25 g Ai/ha, 7-day and twice a week (3/4-day), 57 days after initial treatments): significantly decreased disease incidence
leaf disease incidence (E. necator [4]; 50 g Ai/ha, compared to untreated control): decreased incidence compared to untreated control
% decrease =/− SE TP1 (E. necator [2]): 41 ± 3%
% decrease =/− SE TP2 (E. necator [2]): 28 ± 5%
LSMeans difference (Dunnett's), disease severity (E. necator [5]; Run1, ES43 10 ppm vs negative control GS4 25 ppm): −61.5000
LSMeans difference (Dunnett's), disease severity (E. necator [5]; Run1, ES43 25 ppm vs negative control GS4 25 ppm): −49.1667
LSMeans difference (Dunnett's), disease severity (E. necator [5]; Run 2, ES43 10 ppm vs negative control GS4 25 ppm): 10.0000
LSMeans difference (Dunnett's), disease severity (E. necator [5]; Run 2, ES43 25 ppm vs negative control GS4 25 ppm): −26.3750
LSMeans difference (Dunnett's), disease severity (E. necator [5]; Run 3, ES43 10 ppm vs negative control GS145 25 ppm): −24.0000
LSMeans difference (Dunnett's), disease severity (E. necator [5]; Run 3, ES43 25 ppm vs negative control GS145 25 ppm): −17.0625
powdery mildew development on leaf disks (E. necator [5]; nine-dpi, 10 and 25 ppm, compared to untreated and non-dsRNA targets): significant decrease of powdery mildew development
fungal growth determined by disease severity (FIG. 1) (E. necator [5]; three individual runs combined, 10 and 25 ppm, vs controls GS145 or GS4 (p<0.01)): Significant decrease of fungal growth

B3: GS1875: dsRNA trigger SEQ ID NO 168; gene target Mitochondrial RNA-splicing protein MRS3 (nucleic acid)
chain: AAAGCTCCAGCTGAGCAATGAGTAAGTGGATCGTAAGCCTTTGATGGGTTCAGAAATGTAGATACAGATTCGTATGCGAGAAGTTGAAGTGCTGTAAATGGTACAGTCATGGAAAGAGTAGTTGGATACGAGATATAGAAGGCTGTGATGCCTTCAGTGCGATAGATATAGCGGGCACAATCACTCAGTGATCTATAAATTTTGCGAGAGTTATGCATTTGCATTCTTTGCTTTATTACATCAAATGGGTTCATTAAAGCATCACTTGCAATTGTTGCGCATGCCCCACTTGTAATGCGCATGCCCCACTTGTAACTATGTAGCTTCAGTAAGTGCTCAATATCAAGGATAAATTGGCGATGTAGTCATATATGTCTGATTCCTTAATCAAAATTCTTAATACAGACCTGCTGCAATAGGATGATGAGCTCCTGTTTGATTACCTCCCATGAGATGTTTGACAGCTTCATAGGTTGCAAAATA
gene silencing in E. necator by sprayed dsRNA / gene expression levels vs untreated control [1]: Induced Gene Silencing
% decrease =/− SE TP1 (E. necator [2]): 55 ± 4%
% decrease =/− SE TP2 (E. necator [2]): 41 ± 5%
